Values joined by “and” are separate entries in the source; they are usually repeats but may differ in a detail not shown here. Identical values can stand only once. Like-named read-outs stand apart in the source and are kept apart here.
Key:
[1] = test system: EGFR-overexpressing human tumor cell line H1573; experiment: Cytotoxicity assay in H1573 cells; type: cell-based; details: for potency relative to the parent conjugate (in words): VC-MMAF conjugates
Procedure: Cell killing was assessed by measuring viability of the EGFR-overexpressing human tumor cell line H1573 following exposure to the cysteine variant-cytotoxin conjugates. Cells were plated in black-well, clear bottomed, tissue culture-treated plates (Falcon 353219) at 7000/well in 100 μL/well of phenol red free RPMI media (Gibco 11835-030) with 5% fetal bovine serum (Gibco). Cells were allowed to attach overnight at 37° C. in a humidified 5% CO2 atmosphere. Medium was aspirated from 96-well plate and cells were treated with 50 uL of fresh media and 50 uL of 2× inhibitor made up in fresh media. Cell viability was determined by an endpoint assay with Cell TiterGlo (Promega) at 70 hours. IC50 values were determined by fitting data to the equation for a sigmoidal dose response with variable slope using GraphPad Prism 5 (GraphPad Software). Table 11 reports IC50 values obtained from analysis of the CellTiter Glo data.
Conjugates consisting of ECB147 cysteine variants, 83v2-cys, or Tencon-cys linked to a cytotoxic tubulin inhibitor from the auristatin family (FIG. 2) were tested for target-dependent cytotoxicity in cancer cells. The inhibitor was linked to the cysteine-containing protein via a non-cleavable PEG4 linker or an enzyme-cleavable valine-citrulline or valine-lysine linker. Cell killing was assessed by measuring viability of the EGFR-overexpressing human tumor cell lines H1573 and A431 as well as the EGFR-negative tumor cell line MDA-MB-435 following exposure to the protein-cytotoxin conjugates using the procedure described in Example 4.

[2] = Thermal stability of cysteine-NEM conjugates by DSC; type: physicochemical; details: for First Scan Tm: DSC 25-100 °C, 1 °C per minute; for Second Scan Tm: second identical scan
Procedure: The thermal stability of cysteine-NEM conjugates was assessed by differential scanning calorimetry (DSC). The only the conjugates tested were those determined to express at high levels, conjugate efficiently, and retain EGFR binding. Additionally, cysteine variants within the BC and FG loops were excluded. Stability data was generated by heating a 400 μL aliquot of the variant from 25° C. to 100° C. at a scan rate of 1° C. per minute in a VP-DSC instrument (MicroCal). A second identical scan was completed on the sample in order to assess the reversibility of thermal folding/unfolding. Data was fitted to a 2-state unfolding model in order to calculate the melting temperature (Table 10).

[3] = Analytical size exclusion chromatography (percent monomer); type: physicochemical; details: NEM-conjugated cysteine variants; SEC, Abs280 monomer region 5.5-6 minutes vs oligomer region 4-5.3 minutes
Procedure: Size exclusion chromatography was used to determine the aggregation state of the FN3 domains binding EGFR. Aliquots (10 μL) of each purified FN3 domain were injected onto a Superdex 75 5/150 column (GE Healthcare) at a flow rate of 0.3 mL/min in a mobile phase of PBS pH 7.4. Elution from the column was monitored by absorbance at 280 nm.
The percent monomer for each protein was determined by integrating the Abs280 signal and comparing the peak in the monomer region (5.5-6 minutes) to the peaks in the oligomer region (4-5.3 minutes).

[4] = cysteine variants conjugated to VC-MMAF, Cell TiterGlo at 70 hours, read-out: IC50

Molecule	IC50 [1, 4]	IC50 ([1]; vcMMAF conjugate, read-out: average IC50 of two replicates) [nM]	First Scan Tm [2] [°C]	Second Scan Tm [2] [°C]	Percent monomer [3] [%]	potency relative to the parent conjugate (in words) [1]
83v2His6-cys: P54AR4-83v2 parent with C-terminal cysteine (SEQ ID NOs: 217 and 255); NEM and vcMMAF conjugates (conjugate, His6 tag, C-terminal Cys; NEM or vcMMAF conjugate; EGFR binding FN3 domain, NEM and vcMMAF conjugates) MLPAPKNLVVSEVTEDSARLSWDDPWAFYESFLIQYQESEKVGEAIVLTVPGSERSYDLTGLKPGTEYTVSIYGVHNVYKDTNMRGLPLSAIFTTGGHHHHHHC	0.61 nM and 0.79 nM	0.7	71	71	97	–
N6C: cysteine variant of P54AR4-83v2 (printed SEQ ID NOS: 210 and 248); NEM and VC-MMAF conjugates (conjugate, NEM or vcMMAF conjugate; EGFR binding FN3 domain, NEM and VC-MMAF conjugates) MLPAPKCLVVSEVTEDSARLSWDDPWAFYESFLIQYQESEKVGEAIVLTVPGSERSYDLTGLKPGTEYTVSIYGVHNVYKDTNMRGLPLSAIFTT	0.16 nM	–	71	70	94	over two times more potent than the parent
E53C: cysteine variant of P54AR4-83v2 (SEQ ID NOS: 204 and 242); NEM and VC-MMAF conjugates (conjugate, NEM or vcMMAF conjugate; EGFR binding FN3 domain, NEM and VC-MMAF conjugates) MLPAPKNLVVSEVTEDSARLSWDDPWAFYESFLIQYQESEKVGEAIVLTVPGSCRSYDLTGLKPGTEYTVSIYGVHNVYKDTNMRGLPLSAIFTT	0.09 nM	–	76	75	97	over two times more potent than the parent
P50C (conjugate, left off: small tags and cut ends) LPAPKNLVVSEVTEDSARLSWDDPWAFYESFLIQYQESEKVGEAIVLTVCGSERSYDLTGLKPGTEYTVSIYGVHNVYKDTNMRGLPLSAIFTT	–	–	63	65	100	–
G51C (conjugate, left off: small tags and cut ends) LPAPKNLVVSEVTEDSARLSWDDPWAFYESFLIQYQESEKVGEAIVLTVPCSERSYDLTGLKPGTEYTVSIYGVHNVYKDTNMRGLPLSAIFTT	–	–	61	61	96	–
P63C (conjugate, left off: small tags and cut ends) LPAPKNLVVSEVTEDSARLSWDDPWAFYESFLIQYQESEKVGEAIVLTVPGSERSYDLTGLKCGTEYTVSIYGVHNVYKDTNMRGLPLSAIFTT	–	–	60	62	92	–
WT: Tencon (SEQ ID NO: 265) cysteine variant conjugated to VC-MMAF as a negative control (conjugate, VC-MMAF conjugated via cysteine; Tencon FN3 scaffold) LPAPKNLVVSEVTEDSLRLSWTAPDAAFDSFLIQYQESEKVGEAINLTVPGSERSYDLTGLKPGTEYTVSIYGVKGGHRSNPLSAEFTTGGHHHHHHC	146 nM and 166 nM	–	–	–	–	–

— patent US11702475B2, “Cysteine engineered fibronectin type III domain binding molecules” (Janssen Biotech, Inc., priority 2013, dated 2023)
